Assay results: the supplement of paper PMC6757056
± gives the standard deviation of the averaged measurements.

B1: library; a variant is named by its letters at N, in order (parent)
chain: GCUGUCACCGGUGCUUGGUACGUUAUAUUCAGCCGGUCUGAUGAGUCUNNNNNNAGACGAAACAGC

Assays:
[1] = variants of: B1; assay: FACS-Seq fitted mean relative fluorescence mCherry/BFP without ligand (log10 relative fluorescence); HEK293T overexpressing SLC46A1; higher = higher reporter protein expression; conditions: without (6R,S)-folinic acid; ligand present: no
Method: (§1)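 Hammerhead (sTRSV) ribozyme switch libraries with a ligand aptamer grafted on stem I and a randomized N4-6 loop II, cloned into the 3' UTR of mCherry and transiently transfected into HEK293T cells; RNA-Seq 72 h post transfection with ligand added 1 h before transfection; RNA read count / plasmid DNA read count normalized to the non-cleaving sTRSVctl (x100), log10; sequences with >100 DNA reads. FACS-Seq: lentiviral library sorted into 6 bins after 48 h ligand, log-normal fit mean of mCherry/BFP scaled to controls. Printed sequences are partial switch sequences.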

[2] = variants of: B1; assay: normalized RNA/DNA level without ligand (relative to sTRSVctl = 100) (log10 (% of sTRSVctl)); HEK293T overexpressing SLC46A1; higher = less ribozyme self-cleavage, higher mRNA level; conditions: without (6R,S)-folinic acid; ligand present: no
Method: as §1

[3] = variants of: B1; assay: FACS-Seq fitted mean relative fluorescence mCherry/BFP with ligand (log10 relative fluorescence); HEK293T overexpressing SLC46A1; ligand concentration (+) FACS-Seq: 6 mM; higher = higher reporter protein expression; conditions: with (6R,S)-folinic acid; ligand present: yes
Method: as §1

[4] = variants of: B1; assay: normalized RNA/DNA level with ligand (relative to sTRSVctl = 100) (log10 (% of sTRSVctl)); HEK293T overexpressing SLC46A1; ligand concentration (+) RNA-Seq: 6 mM; higher = less ribozyme self-cleavage, higher mRNA level; conditions: with (6R,S)-folinic acid; ligand present: yes
Method: as §1

Variant | FACS-Seq fitted mean (log10) [1] | normalized RNA/DNA level without ligand (log10) [2] | FACS-Seq fitted mean (log10) [3] | normalized RNA/DNA level with ligand (log10) [4]
UAACUA | 0.248 ± 0.065 | 1.98 ± 0.027 | 0.41 ± 0.11 | 2.03 ± 0.028
AAUAUC | 0.448 ± 0.061 | 2.03 ± 0.042 | 0.348 ± 0.12 | 2.02 ± 0.048
AACUGA | 0.445 ± 0.11 | 2.008 ± 0.0069 | 0.455 ± 0.17 | 2.02 ± 0.038
GGUGCU | -0.205 ± 0.13 | 2.005 ± 0.017 | 0.149 ± 0.25 | 2.01 ± 0.046
UCAACU | 0.46 ± 0.092 | 2.03 ± 0.0056 | 0.559 ± 0.13 | 2.04 ± 0.027
UGCAAU | 0.173 ± 0.069 | 1.841 ± 0.0071 | 0.456 ± 0.15 | 1.973 ± 0.016
GGUUUG | 0.0685 ± 0.084 | 2.024 ± 0.0089 | -0.1121 ± 0.00036 | 2.06 ± 0.025
GCUGGU | 0.447 ± 0.19 | 1.969 ± 0.0056 | 0.172 ± 0.21 | 1.99 ± 0.032
AACGUA | 0.196 ± 0.079 | 1.9883 ± 0.00019 | 0.207 ± 0.071 | 2.02 ± 0.026
GUUGCG | 0.325 ± 0.01 | 1.91 ± 0.02 | 0.566 ± 0.19 | 2.02 ± 0.038
CUAUGU | 0.286 ± 0.071 | 2.01 ± 0.023 | 0.152 ± 0.23 | 2.023 ± 0.014
GUAGUG | 0.359 ± 0.012 | 1.856 ± 0.0051 | 0.637 ± 0.19 | 1.99 ± 0.054
GUAGAA | 0.384 ± 0.0046 | 1.954 ± 0.0058 | 0.522 ± 0.23 | 1.995 ± 0.0074
GUAGAU | 0.516 ± 0.029 | 1.9541 ± 0.0012 | 0.494 ± 0.37 | 1.98 ± 0.047
GAUGCG | 0.444 ± 0.16 | 1.941 ± 0.011 | 0.693 ± 0.15 | 2.02 ± 0.07
AGUCGU | 0.209 ± 0.14 | 1.979 ± 0.013 | -0.0314 ± 0.084 | 2.03 ± 0.029
GUUAUA | -0.102 ± 0.13 | 1.99 ± 0.031 | -0.0941 ± 0.099 | 2.012 ± 0.019
UAUGGA | 0.416 ± 0.029 | 1.828 ± 0.012 | 0.472 ± 0.013 | 1.98 ± 0.021
